The values that follow are results of earlier work, collected in publication PMC5430790.

One data set concerns the target TβR-II (Homo sapiens) (UniProt P37173).
A further data set concerns the target TβR-I (Homo sapiens) (UniProt P36897).

TGF-β1, sequence (P01137 279-390): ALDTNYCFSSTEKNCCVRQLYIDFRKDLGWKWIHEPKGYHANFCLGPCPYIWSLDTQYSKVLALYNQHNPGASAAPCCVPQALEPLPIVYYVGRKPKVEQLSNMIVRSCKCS
TβR-I (Homo sapiens), sequence (P36897 34-126): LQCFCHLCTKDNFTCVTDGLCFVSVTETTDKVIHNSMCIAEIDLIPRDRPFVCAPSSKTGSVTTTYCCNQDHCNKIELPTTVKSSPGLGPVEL
TβR-II (Homo sapiens), sequence (P37173 23-166): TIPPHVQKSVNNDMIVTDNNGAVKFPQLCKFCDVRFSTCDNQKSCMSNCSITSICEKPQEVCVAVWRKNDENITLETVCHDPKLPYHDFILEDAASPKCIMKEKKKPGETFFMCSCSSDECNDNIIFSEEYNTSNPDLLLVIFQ

Regarding TGF-β1 (from UniProt P01137), the dissociation constant (Kd) in the data set with TβR-II (Homo sapiens) was 0.19 µM; in the data set with TβR-I (Homo sapiens), 70 µM.
